In IntAct's records for PubMed 21399639:

Target: T1, ikkb_human IKBKB (UniProt O14920)
T1 sequence: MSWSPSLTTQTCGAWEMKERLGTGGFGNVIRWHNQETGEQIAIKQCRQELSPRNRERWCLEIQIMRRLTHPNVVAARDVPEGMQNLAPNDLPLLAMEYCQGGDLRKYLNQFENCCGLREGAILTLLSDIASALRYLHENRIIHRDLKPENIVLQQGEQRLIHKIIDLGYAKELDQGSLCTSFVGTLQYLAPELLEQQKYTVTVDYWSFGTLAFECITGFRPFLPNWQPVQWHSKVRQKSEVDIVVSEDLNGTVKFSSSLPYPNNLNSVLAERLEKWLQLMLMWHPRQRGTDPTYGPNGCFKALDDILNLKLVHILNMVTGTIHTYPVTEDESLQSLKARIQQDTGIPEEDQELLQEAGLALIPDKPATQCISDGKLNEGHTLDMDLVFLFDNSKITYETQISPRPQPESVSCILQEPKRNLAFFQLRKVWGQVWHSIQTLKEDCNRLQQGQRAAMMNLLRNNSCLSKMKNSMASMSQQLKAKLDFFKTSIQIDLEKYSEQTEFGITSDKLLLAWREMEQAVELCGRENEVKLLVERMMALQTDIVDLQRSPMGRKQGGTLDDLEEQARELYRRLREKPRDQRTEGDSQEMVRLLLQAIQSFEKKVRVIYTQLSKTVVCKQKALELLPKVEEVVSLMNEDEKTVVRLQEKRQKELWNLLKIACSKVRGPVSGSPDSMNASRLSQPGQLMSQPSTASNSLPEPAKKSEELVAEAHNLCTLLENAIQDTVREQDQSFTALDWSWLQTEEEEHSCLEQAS

Small ribosomal subunit protein uS3 (Homo sapiens) (from UniProt P23396) S209A
effect of a mutation on the interaction: disrupting interaction
